Data as given in US20230192845A1 (BLINK BIOMEDICAL, published 2023).
Values belong to the binder of their own block, whether it stands above or below them.

Key:
[1] = biological target: T1, hCD226-His tagged protein transiently expressed on CHO cells (human, UniProt Q15762 19-336); experiment: FRET by flow cytometry on transfected CHO cells
T1 construct: whole, on cells; also called DNAM-1
T1 sequence (looked up): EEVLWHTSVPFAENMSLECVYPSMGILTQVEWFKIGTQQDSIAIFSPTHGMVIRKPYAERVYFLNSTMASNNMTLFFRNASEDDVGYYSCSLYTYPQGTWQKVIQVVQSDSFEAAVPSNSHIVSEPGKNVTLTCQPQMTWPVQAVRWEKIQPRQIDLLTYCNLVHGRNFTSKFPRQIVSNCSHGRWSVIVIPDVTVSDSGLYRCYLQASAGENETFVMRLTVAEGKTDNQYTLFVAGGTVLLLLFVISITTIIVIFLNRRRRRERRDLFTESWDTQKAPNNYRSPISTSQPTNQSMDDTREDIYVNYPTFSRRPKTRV

[2] = biological target: T2, rhesus CD96 transiently expressed on CHO cells (rhesus, UniProt P40200 22-585 (human entry)); experiment: flow cytometry on CHO cells transiently expressing rhesus CD96; antibody at 1 (thin line) and 10 µg/ml (thick dashed line), filled grey = isotype control
T2 construct: also called rhesus CD96, short isoform
T2 chain: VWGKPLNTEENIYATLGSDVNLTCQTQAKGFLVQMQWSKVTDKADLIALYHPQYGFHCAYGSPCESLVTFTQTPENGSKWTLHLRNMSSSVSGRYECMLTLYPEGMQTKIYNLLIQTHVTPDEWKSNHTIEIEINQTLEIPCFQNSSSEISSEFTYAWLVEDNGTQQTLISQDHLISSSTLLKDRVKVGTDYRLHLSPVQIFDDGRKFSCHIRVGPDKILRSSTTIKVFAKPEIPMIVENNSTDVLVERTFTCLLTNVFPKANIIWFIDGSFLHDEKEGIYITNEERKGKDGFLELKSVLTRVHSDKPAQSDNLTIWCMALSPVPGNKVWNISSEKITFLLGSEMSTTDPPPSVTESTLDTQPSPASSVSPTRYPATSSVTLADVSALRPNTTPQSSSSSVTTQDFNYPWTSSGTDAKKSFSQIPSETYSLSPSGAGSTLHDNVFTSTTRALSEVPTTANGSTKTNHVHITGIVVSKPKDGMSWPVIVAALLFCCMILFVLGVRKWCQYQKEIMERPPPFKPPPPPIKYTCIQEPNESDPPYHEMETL
How it was run: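 Non-fixed CHO cells transiently transfected with rhesus CD96 were incubated with mouse anti-CD96 antibodies or isotype controls at 1 or 10 µg/mL for 30 min at 4 °C. Binding was read as fluorescence intensity by flow cytometry.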

[3] = biological target: T3, human CD96 long isoform v1 transiently expressed on CHO cells (human, UniProt P40200 22-585); experiment: FCM on hCD96v1-CHO cells, 10 µg/ml
T3 construct: also called hCD96v1; CD96v1
T3 sequence: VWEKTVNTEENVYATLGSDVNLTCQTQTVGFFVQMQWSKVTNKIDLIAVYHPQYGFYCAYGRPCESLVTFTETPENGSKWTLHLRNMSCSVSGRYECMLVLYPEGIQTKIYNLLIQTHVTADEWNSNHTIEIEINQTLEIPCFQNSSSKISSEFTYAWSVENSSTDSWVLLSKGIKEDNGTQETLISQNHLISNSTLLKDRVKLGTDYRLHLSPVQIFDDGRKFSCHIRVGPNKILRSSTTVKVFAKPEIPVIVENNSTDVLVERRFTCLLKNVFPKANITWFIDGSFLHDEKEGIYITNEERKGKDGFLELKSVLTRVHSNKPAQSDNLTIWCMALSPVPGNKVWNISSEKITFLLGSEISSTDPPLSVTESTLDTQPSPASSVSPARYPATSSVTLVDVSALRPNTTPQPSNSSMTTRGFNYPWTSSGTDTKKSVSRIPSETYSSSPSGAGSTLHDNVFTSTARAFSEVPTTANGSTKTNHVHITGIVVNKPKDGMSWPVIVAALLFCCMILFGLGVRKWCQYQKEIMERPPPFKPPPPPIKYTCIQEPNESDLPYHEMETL

[4] = biological target: T4, mouse CD96 expressed on CHO cells (mouse, UniProt Q3U0X8 22-602); experiment: FCM on CHO cells expressing mouse CD96
T4 construct: whole, on cells; also called mCD96
T4 sequence (looked up): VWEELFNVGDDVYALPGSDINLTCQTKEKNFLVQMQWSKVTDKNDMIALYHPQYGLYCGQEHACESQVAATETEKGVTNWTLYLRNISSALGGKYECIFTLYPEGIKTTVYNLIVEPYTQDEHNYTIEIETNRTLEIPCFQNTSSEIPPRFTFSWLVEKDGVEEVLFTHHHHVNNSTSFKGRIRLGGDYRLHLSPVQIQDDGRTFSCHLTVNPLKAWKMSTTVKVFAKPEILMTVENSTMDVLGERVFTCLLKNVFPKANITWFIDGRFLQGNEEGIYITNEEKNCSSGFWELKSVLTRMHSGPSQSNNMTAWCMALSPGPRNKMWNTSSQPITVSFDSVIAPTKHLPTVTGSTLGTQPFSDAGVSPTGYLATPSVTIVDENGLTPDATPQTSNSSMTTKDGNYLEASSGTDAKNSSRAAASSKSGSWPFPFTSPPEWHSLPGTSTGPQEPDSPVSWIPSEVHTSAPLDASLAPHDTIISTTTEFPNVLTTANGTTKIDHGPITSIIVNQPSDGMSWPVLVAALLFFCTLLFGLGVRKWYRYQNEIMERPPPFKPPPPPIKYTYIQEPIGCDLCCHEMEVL
How it was run: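 Flow cytometry on non-fixed CHO transfectants; mouse CD96 surface expression verified with clone 6A6. Mouse anti-CD96 antibodies or isotype controls applied at 10 or 1 μg/mL, 30 min at +4 °C.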

[5] = biological target: T5, human CD96 short isoform v2 expressed on CHO cells (human, UniProt P40200 22-585); experiment: flow cytometry, indirect staining of transiently transfected CHO-S cells; median % of stained cells, 3-4 experiments
T5 construct: also called hCD96v2; CD96v2; not shown: C-terminal HA-tag
T5 sequence: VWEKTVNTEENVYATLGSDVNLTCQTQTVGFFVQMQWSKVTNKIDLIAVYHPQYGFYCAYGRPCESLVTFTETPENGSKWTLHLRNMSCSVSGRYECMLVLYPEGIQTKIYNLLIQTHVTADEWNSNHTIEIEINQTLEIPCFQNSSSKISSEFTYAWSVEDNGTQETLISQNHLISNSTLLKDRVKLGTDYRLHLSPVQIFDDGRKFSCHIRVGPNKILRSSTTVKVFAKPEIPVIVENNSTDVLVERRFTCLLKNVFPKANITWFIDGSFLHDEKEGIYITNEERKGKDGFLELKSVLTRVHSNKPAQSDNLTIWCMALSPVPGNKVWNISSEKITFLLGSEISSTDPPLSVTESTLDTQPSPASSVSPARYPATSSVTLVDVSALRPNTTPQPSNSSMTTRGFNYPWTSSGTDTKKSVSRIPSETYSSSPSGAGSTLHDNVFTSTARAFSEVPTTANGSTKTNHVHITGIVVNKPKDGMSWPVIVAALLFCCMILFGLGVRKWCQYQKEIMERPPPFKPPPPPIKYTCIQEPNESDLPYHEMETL
Excerpt: Expression plasmids containing either the complete sequence of hCD96v2 or different extracellular domains (D1 to D3) of hCD96v2 or combinations thereof (D1D2, D1D3 or D2D3) were transiently transfected in CHO-S cells. Each transient transfect was indirectly stained with the different anti-CD96 candidates and analyzed by flow cytometry. Represented is the median % of stained CHO-S transfect obtained from 3 to 4 independent experiments for each anti-CD96 tested.
Expression vectors coding for truncated extracellular domains of hCD96v2 (short isoform v2) were constructed to map, within the 3 described immunoglobulin domains of hCD96v2, the epitopes recognized by the anti-hCD96 candidates. All expression vectors constructed contained the signal peptide, the D4 domain, the transmembrane, the intracellular chain of […] plus a HA-Tag to monitor transfection efficiency of the various constructs. The expression vectors contained only D1, D2, D3 or combinations of those 3 domains (D1D2, D1D3, D2D3). The anti-hCD96 antibodies were tested by FCM for their capacity to recognize the truncated CD96 proteins transiently expressed on CHO-S cells.

- binding result [1]: binds
B1: hTIGIT-Myc tagged protein transiently expressed on CHO cells (receptor, human, UniProt Q495A1 22-244, looked up)
chain: MMTGTIETTGNISAEKGGSIILQCHLSSTTAQVTQVNWEQQDQLLAICNADLGWHISPSFKDRVAPGPGLGLTLQSLTVNDTGEYFCIYHTYPDGTYTGRIFLEVLESSVAEHGARFQIPLLGAMAATLVVICTAVIVVVALTRKKKALRIHSVEGDLRRKSAGQEEWSPSAPSPPGSCVQAEAAPAGLCGEQRGEDCAELHDYFNVLSYRSLGNCSFFTETG
notes: whole, on cells

- binding result [2]: binds
- binding result [3]: binds
- binding result [4]: no binding (tested: 1 and 10 µg/mL)
- binding result [5]: binds
B2: BL006-2-19G13-19K15 (antibody, V domains shown)
VH: QVQLQQPGSELVRPGASVKLSCKASGYKFTSYWMHWVKQRPGQGLEWIGSIYPGSGSTNYDEKFKRKATLTVDTFSSTASMQLSSLTSEDSAVYYCTREMAYWGQGTLVTVSA
VL: DIVITQDELSNPVTSGESVSISCRSSKSLLYKDGKTYLNWFLQRPGQSPQLLVYWMSTRASGVSDRFSGSGSGTDFTLEISRVKAEDVGVYYCQQVVEYPFTFGTGTKLGIK
notes: Recombinant mIgG2a/kappa (also made as mIgG2a-D265A); also called candidate NO 9
